Values of other authors, collected in publication PMC4932920.

Tests used:
His117 = His117 (UniProt position 118, CVLAHHFGKEF); assay: NMR
His143 [1] = target: T1, His143 (UniProt position 144, ANALAHKYH--); assay: NMR
His77 [2] = target: T2, His77 (UniProt position 78, SDGLAHLDNLK); assay: NMR
His97 [3] = target: T3, His97 (UniProt position 98, HCDKLHVDPEN); assay: NMR
His146 [4] = target: T4, His146 (UniProt position 147, LAHKYH-----); assay: NMR
His143 [5] = target: T1, His143; assay: other (H/D exchange of individual histidine residues)
His77 [6] = target: T2, His77; assay: as above
His97 [7] = target: T3, His97; assay: as above
His146 [8] = target: T4, His146; assay: as above
His89 [9] = target: T5, His89 (UniProt position 90, SDLHAHKLRVD); assay: NMR
His72 [10] = target: T6, His72 (UniProt position 73, TNAVAHVDDMP); assay: NMR
His50 [11] = target: T7, His50 (UniProt position 51, HFDLSHGSAQV); assay: NMR
His20 [12] = target: T8, His20 (UniProt position 21, GKVGAHAGEYG); assay: NMR
His112 [13] = target: T9, His112 (UniProt position 113, VTLAAHLPAEF); assay: NMR
His89 [14] = target: T5, His89; assay: other (H/D exchange of individual histidine residues)
His72 [15] = target: T6, His72; assay: as above
His50 [16] = target: T7, His50; assay: as above
His20 [17] = target: T8, His20; assay: as above
His112 [18] = target: T9, His112; assay: as above
His103 = His103 (UniProt position 104, FKLLSHCLLVT); assay: other (histidine H/D exchange)
[19] = carbonmonoxy (CO-liganded) hemoglobin, R state

Hemoglobin A (adult human hemoglobin), beta chain (Homo sapiens)
pKa (His117; [19]): 6.39
pKa (His117; deoxy hemoglobin, T state): 6.43
pKa (His143 [1]; [19]): 5.57
pKa (His143 [1]; deoxy hemoglobin, T state): 4.70
pKa (His77 [2]; [19]): 7.79
pKa (His77 [2]; deoxy hemoglobin, T state): 7.47
pKa (His97 [3]; [19]): 7.75
pKa (His97 [3]; deoxy hemoglobin, T state): 8.01
pKa (His146 [4]; [19]): 6.42
pKa (His146 [4]; deoxy hemoglobin, T state): 7.93
pKa (His143 [5]; [19]): 6.1
pKa (His143 [5]; deoxy hemoglobin, T state): 5.6
pKa (His77 [6]; [19]): 7.8
pKa (His77 [6]; deoxy hemoglobin, T state): 7.8
pKa (His97 [7]; [19]): 6.4
pKa (His97 [7]; deoxy hemoglobin, T state): 6.4
pKa (His146 [8]; [19]): 7.0
pKa (His146 [8]; deoxy hemoglobin, T state): 8.1

Hemoglobin A (adult human hemoglobin), alpha chain (Homo sapiens)
pKa (His89 [9]; [19]): 6.25
pKa (His89 [9]; deoxy hemoglobin, T state): 6.80
pKa (His72 [10]; [19]): 7.27
pKa (His72 [10]; deoxy hemoglobin, T state): 7.47
pKa (His50 [11]; [19]): 6.90
pKa (His50 [11]; deoxy hemoglobin, T state): 7.14
pKa (His20 [12]; [19]): 7.08
pKa (His20 [12]; deoxy hemoglobin, T state): 7.02
pKa (His112 [13]; [19]): 7.53
pKa (His112 [13]; deoxy hemoglobin, T state): 7.49
pKa (His89 [14]; [19]): 5.6
pKa (His89 [14]; deoxy hemoglobin, T state): 7.2
pKa (His72 [15]; [19]): 7.1
pKa (His72 [15]; deoxy hemoglobin, T state): 7.3
pKa (His50 [16]; [19]): 7.1
pKa (His50 [16]; deoxy hemoglobin, T state): 7.2
pKa (His20 [17]; [19]): 7.0
pKa (His20 [17]; deoxy hemoglobin, T state): 7.6
pKa (His112 [18]; [19]): 8.1
pKa (His112 [18]; deoxy hemoglobin, T state): 8.1

Hemoglobin A (adult human hemoglobin), alpha chain residue titrated (Homo sapiens)
pKa (His103; [19]): 7.1
pKa (His103; deoxy hemoglobin, T state): 7.1
